In patent publication US20110281938A1:

Biological target: tissue factor:FVIIa complex (TF:FVIIa) (UniProt P13726)
Assay: cell-based or functional assay

Sequence of tissue factor:FVIIa complex (TF:FVIIa) (P13726 33-295 limits assumed, chain 1 of 2): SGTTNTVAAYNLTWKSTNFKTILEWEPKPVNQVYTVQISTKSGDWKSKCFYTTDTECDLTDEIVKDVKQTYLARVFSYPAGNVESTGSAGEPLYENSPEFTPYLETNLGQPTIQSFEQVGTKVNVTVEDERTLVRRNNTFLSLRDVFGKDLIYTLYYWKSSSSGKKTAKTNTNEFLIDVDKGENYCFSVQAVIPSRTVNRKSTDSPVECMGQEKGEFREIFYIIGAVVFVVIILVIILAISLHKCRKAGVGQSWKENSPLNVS
Sequence of tissue factor:FVIIa complex (TF:FVIIa) (P08709 61-466 limits assumed, chain 2 of 2, further chain): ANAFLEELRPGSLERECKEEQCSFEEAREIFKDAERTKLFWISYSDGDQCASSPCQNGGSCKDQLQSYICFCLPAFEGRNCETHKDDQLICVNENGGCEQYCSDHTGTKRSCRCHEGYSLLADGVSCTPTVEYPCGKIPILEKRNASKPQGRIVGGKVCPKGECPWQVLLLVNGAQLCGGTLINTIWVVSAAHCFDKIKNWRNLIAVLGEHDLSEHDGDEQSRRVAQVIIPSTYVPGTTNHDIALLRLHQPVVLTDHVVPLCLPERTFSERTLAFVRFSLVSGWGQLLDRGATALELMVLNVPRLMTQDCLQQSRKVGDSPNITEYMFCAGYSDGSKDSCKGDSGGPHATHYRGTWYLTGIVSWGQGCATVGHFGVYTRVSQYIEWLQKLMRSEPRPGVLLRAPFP

## TFPI (source and species not stated; Examples 8, 12 and 45) (from UniProt P10646 29-304)
  rate of FXa generation at 4 minutes, extrinsic tenase (Xase) inhibition assay, 1 nM TFPI: 70%
